Biological target: Respiratory syncytial virus nucleoprotein N, R234A mutant (human respiratory syncytial virus) (UniProt P03418)

Respiratory syncytial virus nucleoprotein N, R234A mutant (from UniProt P03418 1-391) (natural protein)
polymerase activity (viral RNA synthesis) in an HRSV plasmid-based minigenome luciferase assay in BSRT7/5 cells, compared to wt N: 68 % of wt N
